This is an account of results in patent publication US20210032299A1 (Eli Lilly, published 2021).

The target in assay [1] is T1, human glucose-dependent insulinotropic polypeptide (GIP) receptor (human, UniProt P48546 22-466).
T1 construct: whole, on cells; Assayed as crude membranes of stably transfected CHO cells; also called hGIPR; human GIP receptor
T1 sequence (looked up): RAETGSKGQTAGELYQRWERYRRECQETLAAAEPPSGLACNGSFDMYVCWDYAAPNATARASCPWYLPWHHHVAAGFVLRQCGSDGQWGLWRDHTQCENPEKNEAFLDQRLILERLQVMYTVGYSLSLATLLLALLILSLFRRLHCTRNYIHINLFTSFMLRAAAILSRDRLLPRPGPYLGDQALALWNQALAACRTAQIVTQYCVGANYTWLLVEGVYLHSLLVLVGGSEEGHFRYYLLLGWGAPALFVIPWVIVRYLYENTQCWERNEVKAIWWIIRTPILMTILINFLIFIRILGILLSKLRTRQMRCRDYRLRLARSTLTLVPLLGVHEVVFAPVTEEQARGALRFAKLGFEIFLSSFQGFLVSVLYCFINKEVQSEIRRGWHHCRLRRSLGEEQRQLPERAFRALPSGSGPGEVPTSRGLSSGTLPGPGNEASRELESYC
As to the kind of experiment: SPA, displacement of [125I]-GIP from hGIPR membranes, 0.1% bacitracin. (Displacement assays read how much labelled ligand stays bound in the presence of the test substance.)

A further assay has as its target T2, human GLP-1 receptor (human, UniProt P43220 24-463).
T2 construct: whole, on cells; Assayed as crude membranes of stably transfected HEK293 cells; also called hGLP1R; hGLP-1R
As to the kind of experiment: SPA, displacement of [125I]-GLP-1 from hGLP-1R membranes, 0.1% bacitracin. The method in brief:
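Binding buffer: 25 mM HEPES pH 7.4, 2.5 mM CaCl₂, 1 mM MgCl₂, 0.1% bacitracin, 0.003% Tween-20, protease inhibitors without EDTA. Four-parameter nonlinear regression; Kᵢ given as geometric mean ± SEM, n = independent replicates run on different days.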

For another assay, the target named is T3, human glucagon receptor (human, UniProt P47871 26-477).
T3 construct: whole, on cells; Assayed as crude membranes of stably transfected HEK293 cells; also called hGcgR; GcgR
As to the kind of experiment: SPA, displacement of [125I]-Gcg from hGcgR membranes, 0.1% bacitracin. Here is the method: The binding buffer contains 25 mM 4-(2-hydroxyethyl)-1-piperazineethanesulfonic acid (HEPES), pH 7.4, 2.5 mM CaCl₂), 1 mM MgCl₂, 0.1% (w/v) bacitracin (Research Products), 0.003% (w/v) Polyoxyethylenesorbitan monolaurate (TWEEN®-20), and Roche Complete™ Protease Inhibitors without EDTA. […] Plates are sealed and mixed on a plate shaker (setting 6) for 1 minute and read with a PerkinElmer Trilux MicroBeta® scintillation counter after 12 hours of incubation/settling time at room temperature.
Data are analyzed using four-parameter (curve maximum, curve minimum, […], Hill slope) nonlinear regression routines (Genedata Screener, version 12.0.4, Genedata AG, Basal, Switzerland). […] Values for Kᵢ are reported as the geometric mean, with error expressed as the standard error of the mean (SEM) and n is equal to the number of independent replicates (determined in assays performed on different days).

Starred links: 1 amine or outer side, 2 acyl side, 3 side chain; linkers in the order of their positions; H or OH if unused. Non-standard residues stand in square brackets, D forms with d. Groups on a side chain read outwards from the residue. No end group written: not given here. *: point of attachment. C20 diacid = O=C(O)CCCCCCCCCCCCCCCCCCC(=O)*; γGlu = O=C(O)[C@H](CCC(=O)[*:2])N[*:1]; 4Pal = N[C@@H](Cc1ccncc1)C(=O)O; αMeL = CC(C)C[C@](C)(N)C(=O)O; AEEA = NCCOCCOCC(=O)O; Aib = CC(C)(N)C(=O)O

T3 sequence (P47871 26-477): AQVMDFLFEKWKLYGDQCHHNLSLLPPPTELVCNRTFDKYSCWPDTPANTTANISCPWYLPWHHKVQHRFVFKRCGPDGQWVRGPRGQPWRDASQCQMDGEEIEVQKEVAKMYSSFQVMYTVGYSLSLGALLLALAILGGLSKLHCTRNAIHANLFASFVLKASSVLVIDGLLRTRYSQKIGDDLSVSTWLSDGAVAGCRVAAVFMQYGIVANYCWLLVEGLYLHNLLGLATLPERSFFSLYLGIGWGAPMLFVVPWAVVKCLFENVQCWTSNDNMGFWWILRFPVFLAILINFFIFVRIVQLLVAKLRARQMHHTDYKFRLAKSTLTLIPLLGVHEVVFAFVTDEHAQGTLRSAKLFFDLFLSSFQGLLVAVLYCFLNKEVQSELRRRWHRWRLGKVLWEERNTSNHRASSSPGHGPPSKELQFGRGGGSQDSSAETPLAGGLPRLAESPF

B1: Example 46 (peptide)
peptide: Y[Aib]EGTFISDYSI[αMeL]LDKK([AEEA-AEEA-γGlu-C20 diacid])HQ[Aib]DFVE[4Pal]LLEQGPSSGAPPPS-NH2
modifications: N-terminus assumed
SMILES: CC[C@H](C)[C@H](NC(=O)[C@H](Cc1ccccc1)NC(=O)[C@@H](NC(=O)CNC(=O)[C@H](CCC(=O)O)NC(=O)C(C)(C)NC(=O)[C@@H](N)Cc1ccc(O)cc1)[C@@H](C)O)C(=O)N[C@@H](CO)C(=O)N[C@@H](CC(=O)O)C(=O)N[C@@H](Cc1ccc(O)cc1)C(=O)N[C@@H](CO)C(=O)N[C@H](C(=O)N[C@@](C)(CC(C)C)C(=O)N[C@@H](CC(C)C)C(=O)N[C@@H](CC(=O)O)C(=O)N[C@@H](CCCCN)C(=O)N[C@@H](CCCCNC(=O)COCCOCCNC(=O)COCCOCCNC(=O)CC[C@H](NC(=O)CCCCCCCCCCCCCCCCCCC(=O)O)C(=O)O)C(=O)N[C@@H](Cc1c[nH]cn1)C(=O)N[C@@H](CCC(N)=O)C(=O)NC(C)(C)C(=O)N[C@@H](CC(=O)O)C(=O)N[C@@H](Cc1ccccc1)C(=O)N[C@H](C(=O)N[C@@H](CCC(=O)O)C(=O)N[C@@H](Cc1ccncc1)C(=O)N[C@@H](CC(C)C)C(=O)N[C@@H](CC(C)C)C(=O)N[C@@H](CCC(=O)O)C(=O)N[C@@H](CCC(N)=O)C(=O)NCC(=O)N1CCC[C@H]1C(=O)N[C@@H](CO)C(=O)N[C@@H](CO)C(=O)NCC(=O)N[C@@H](C)C(=O)N1CCC[C@H]1C(=O)N1CCC[C@H]1C(=O)N1CCC[C@H]1C(=O)N[C@@H](CO)C(N)=O)C(C)C)[C@@H](C)CC
As usually defined, the Ki is the equilibrium dissociation constant of an inhibitor or competing ligand from its target. A higher Ki goes with a looser hold on the target. In the case of B1, the results for the Ki (in assay [1]; with human GLP-1 receptor; with human glucagon receptor) were 0.0319 nM, 744 nM and 435 nM, respectively.

B2: Example 57 (peptide)
peptide: Y[Aib]EGTFISDYSI[αMeL]LDKK([AEEA-AEEA-γGlu-C20 diacid])HQ[Aib]EFVE[4Pal]LLAQGPSSGAPPPS-NH2
modifications: N-terminus assumed
SMILES: CC[C@H](C)[C@H](NC(=O)[C@H](Cc1ccccc1)NC(=O)[C@@H](NC(=O)CNC(=O)[C@H](CCC(=O)O)NC(=O)C(C)(C)NC(=O)[C@@H](N)Cc1ccc(O)cc1)[C@@H](C)O)C(=O)N[C@@H](CO)C(=O)N[C@@H](CC(=O)O)C(=O)N[C@@H](Cc1ccc(O)cc1)C(=O)N[C@@H](CO)C(=O)N[C@H](C(=O)N[C@@](C)(CC(C)C)C(=O)N[C@@H](CC(C)C)C(=O)N[C@@H](CC(=O)O)C(=O)N[C@@H](CCCCN)C(=O)N[C@@H](CCCCNC(=O)COCCOCCNC(=O)COCCOCCNC(=O)CC[C@H](NC(=O)CCCCCCCCCCCCCCCCCCC(=O)O)C(=O)O)C(=O)N[C@@H](Cc1c[nH]cn1)C(=O)N[C@@H](CCC(N)=O)C(=O)NC(C)(C)C(=O)N[C@@H](CCC(=O)O)C(=O)N[C@@H](Cc1ccccc1)C(=O)N[C@H](C(=O)N[C@@H](CCC(=O)O)C(=O)N[C@@H](Cc1ccncc1)C(=O)N[C@@H](CC(C)C)C(=O)N[C@@H](CC(C)C)C(=O)N[C@@H](C)C(=O)N[C@@H](CCC(N)=O)C(=O)NCC(=O)N1CCC[C@H]1C(=O)N[C@@H](CO)C(=O)N[C@@H](CO)C(=O)NCC(=O)N[C@@H](C)C(=O)N1CCC[C@H]1C(=O)N1CCC[C@H]1C(=O)N1CCC[C@H]1C(=O)N[C@@H](CO)C(N)=O)C(C)C)[C@@H](C)CC
On to B2, for which the Ki in assay [1] was found to be 0.0154 nM; with human GLP-1 receptor, 280 nM; with human glucagon receptor it was 422 nM.

B3: Example 58 (peptide)
peptide: Y[Aib]EGTFISDYSI[αMeL]LDKK([AEEA-AEEA-γGlu-C20 diacid])HQ[Aib]EFVE[4Pal]LLATGPSSGAPPPS-NH2
modifications: N-terminus assumed
SMILES: CC[C@H](C)[C@H](NC(=O)[C@H](Cc1ccccc1)NC(=O)[C@@H](NC(=O)CNC(=O)[C@H](CCC(=O)O)NC(=O)C(C)(C)NC(=O)[C@@H](N)Cc1ccc(O)cc1)[C@@H](C)O)C(=O)N[C@@H](CO)C(=O)N[C@@H](CC(=O)O)C(=O)N[C@@H](Cc1ccc(O)cc1)C(=O)N[C@@H](CO)C(=O)N[C@H](C(=O)N[C@@](C)(CC(C)C)C(=O)N[C@@H](CC(C)C)C(=O)N[C@@H](CC(=O)O)C(=O)N[C@@H](CCCCN)C(=O)N[C@@H](CCCCNC(=O)COCCOCCNC(=O)COCCOCCNC(=O)CC[C@H](NC(=O)CCCCCCCCCCCCCCCCCCC(=O)O)C(=O)O)C(=O)N[C@@H](Cc1c[nH]cn1)C(=O)N[C@@H](CCC(N)=O)C(=O)NC(C)(C)C(=O)N[C@@H](CCC(=O)O)C(=O)N[C@@H](Cc1ccccc1)C(=O)N[C@H](C(=O)N[C@@H](CCC(=O)O)C(=O)N[C@@H](Cc1ccncc1)C(=O)N[C@@H](CC(C)C)C(=O)N[C@@H](CC(C)C)C(=O)N[C@@H](C)C(=O)N[C@H](C(=O)NCC(=O)N1CCC[C@H]1C(=O)N[C@@H](CO)C(=O)N[C@@H](CO)C(=O)NCC(=O)N[C@@H](C)C(=O)N1CCC[C@H]1C(=O)N1CCC[C@H]1C(=O)N1CCC[C@H]1C(=O)N[C@@H](CO)C(N)=O)[C@@H](C)O)C(C)C)[C@@H](C)CC
With B3, the Ki in assay [1] came to 0.0324 nM; in the assay with human GLP-1 receptor, 459 nM; with human glucagon receptor, 418 nM.

B4: Example 47 (peptide)
peptide: Y[Aib]EGTFISDYSI[αMeL]LDKK([AEEA-AEEA-γGlu-C20 diacid])HQ[Aib]DFVE[4Pal]LLEGGPSSGAPPPS-NH2
modifications: N-terminus assumed
SMILES: CC[C@H](C)[C@H](NC(=O)[C@H](Cc1ccccc1)NC(=O)[C@@H](NC(=O)CNC(=O)[C@H](CCC(=O)O)NC(=O)C(C)(C)NC(=O)[C@@H](N)Cc1ccc(O)cc1)[C@@H](C)O)C(=O)N[C@@H](CO)C(=O)N[C@@H](CC(=O)O)C(=O)N[C@@H](Cc1ccc(O)cc1)C(=O)N[C@@H](CO)C(=O)N[C@H](C(=O)N[C@@](C)(CC(C)C)C(=O)N[C@@H](CC(C)C)C(=O)N[C@@H](CC(=O)O)C(=O)N[C@@H](CCCCN)C(=O)N[C@@H](CCCCNC(=O)COCCOCCNC(=O)COCCOCCNC(=O)CC[C@H](NC(=O)CCCCCCCCCCCCCCCCCCC(=O)O)C(=O)O)C(=O)N[C@@H](Cc1c[nH]cn1)C(=O)N[C@@H](CCC(N)=O)C(=O)NC(C)(C)C(=O)N[C@@H](CC(=O)O)C(=O)N[C@@H](Cc1ccccc1)C(=O)N[C@H](C(=O)N[C@@H](CCC(=O)O)C(=O)N[C@@H](Cc1ccncc1)C(=O)N[C@@H](CC(C)C)C(=O)N[C@@H](CC(C)C)C(=O)N[C@@H](CCC(=O)O)C(=O)NCC(=O)NCC(=O)N1CCC[C@H]1C(=O)N[C@@H](CO)C(=O)N[C@@H](CO)C(=O)NCC(=O)N[C@@H](C)C(=O)N1CCC[C@H]1C(=O)N1CCC[C@H]1C(=O)N1CCC[C@H]1C(=O)N[C@@H](CO)C(N)=O)C(C)C)[C@@H](C)CC
For B4, the Ki in assay [1] was found to be 0.0452 nM; with human GLP-1 receptor, 320 nM; with human glucagon receptor it was 175 nM.

B5: Example 52 (peptide)
peptide: Y[Aib]EGTFISDYSI[αMeL]LDKK([AEEA-AEEA-γGlu-C20 diacid])HQ[Aib]EFVE[4Pal]LLAGGPSSGAPPPS-NH2
modifications: N-terminus assumed
SMILES: CC[C@H](C)[C@H](NC(=O)[C@H](Cc1ccccc1)NC(=O)[C@@H](NC(=O)CNC(=O)[C@H](CCC(=O)O)NC(=O)C(C)(C)NC(=O)[C@@H](N)Cc1ccc(O)cc1)[C@@H](C)O)C(=O)N[C@@H](CO)C(=O)N[C@@H](CC(=O)O)C(=O)N[C@@H](Cc1ccc(O)cc1)C(=O)N[C@@H](CO)C(=O)N[C@H](C(=O)N[C@@](C)(CC(C)C)C(=O)N[C@@H](CC(C)C)C(=O)N[C@@H](CC(=O)O)C(=O)N[C@@H](CCCCN)C(=O)N[C@@H](CCCCNC(=O)COCCOCCNC(=O)COCCOCCNC(=O)CC[C@H](NC(=O)CCCCCCCCCCCCCCCCCCC(=O)O)C(=O)O)C(=O)N[C@@H](Cc1c[nH]cn1)C(=O)N[C@@H](CCC(N)=O)C(=O)NC(C)(C)C(=O)N[C@@H](CCC(=O)O)C(=O)N[C@@H](Cc1ccccc1)C(=O)N[C@H](C(=O)N[C@@H](CCC(=O)O)C(=O)N[C@@H](Cc1ccncc1)C(=O)N[C@@H](CC(C)C)C(=O)N[C@@H](CC(C)C)C(=O)N[C@@H](C)C(=O)NCC(=O)NCC(=O)N1CCC[C@H]1C(=O)N[C@@H](CO)C(=O)N[C@@H](CO)C(=O)NCC(=O)N[C@@H](C)C(=O)N1CCC[C@H]1C(=O)N1CCC[C@H]1C(=O)N1CCC[C@H]1C(=O)N[C@@H](CO)C(N)=O)C(C)C)[C@@H](C)CC
As to B5, the Ki in assay [1] turned out to be 0.0372 nM; with human GLP-1 receptor, 128 nM; in the assay with human glucagon receptor, 114 nM.
